For assay [1], the target named is biotinylated gp41 MPER peptide RRR-(656-683)-RRK-biotin (HIV-1). Briefly: SPR: biotinylated MPER peptide on an SA chip, Fab as analyte, 1:1 Langmuir fit.
In assay [2] the target is soluble gp41 MPER peptide RRR-(656-683)-RRR (HIV-1). As to the kind of experiment: SPR: variant IgG captured on an anti-human IgG chip, MPER peptide as analyte. In general terms: SPR reads the build-up and loss of mass on a sensor chip optically.

B1: 10E8 Fab (antigen binding fragment of 10E8) (Fab, V domains shown)
VH: EVQLVESGGGLVKPGGSLRLSCSASGFDFDNAWMTWVRQPPGKGLEWVGRITGPGEGWSVDYAAPVEGRFTISRLNSINFLYLEMNNLRMEDSGLYFCARTGKYYDFWSGYPPGEEYFQDWGRGTLVTVSS
VL: SYELTQETGVSVALGRTVTITCRGDSLRSHYASWYQKKPGQAPILLFYGKNNRPSGVPDRFSGSASGNRASLTISGAQAEDDAEYYCSSRDKSGSRLSVFGGGTKLTVL
The term Kd denotes the free concentration of one partner at which half of the binding sites on the other are occupied at equilibrium, for simple one-to-one binding. A lower Kd goes with higher affinity. Molecule B1 returned a dissociation constant Kd in assay [1] of 17 nM.

B2: 10E8 IgG alanine variant E53A (heavy chain, Kabat) (antibody, V domains shown)
VH: EVQLVESGGGLVKPGGSLRLSCSASGFDFDNAWMTWVRQPPGKGLEWVGRITGPGAGWSVDYAAPVEGRFTISRLNSINFLYLEMNNLRMEDSGLYFCARTGKYYDFWSGYPPGEEYFQDWGRGTLVTVSS
VL: SYELTQETGVSVALGRTVTITCRGDSLRSHYASWYQKKPGQAPILLFYGKNNRPSGVPDRFSGSASGNRASLTISGAQAEDDAEYYCSSRDKSGSRLSVFGGGTKLTVL
In assay [2], B2 came in with a fold decrease in affinity relative to wild type 10E8 of 60 fold.

(Values after patent US20140348785A1.)
